From patent US20210130436A1 (published 2021)
Positions count from the first letter of the chain named. Numbers in names are those of the source.

T1: CD96 (UniProt P40200 22-585, limits assumed)
T1 construct: whole, on cells
T1 sequence (looked up): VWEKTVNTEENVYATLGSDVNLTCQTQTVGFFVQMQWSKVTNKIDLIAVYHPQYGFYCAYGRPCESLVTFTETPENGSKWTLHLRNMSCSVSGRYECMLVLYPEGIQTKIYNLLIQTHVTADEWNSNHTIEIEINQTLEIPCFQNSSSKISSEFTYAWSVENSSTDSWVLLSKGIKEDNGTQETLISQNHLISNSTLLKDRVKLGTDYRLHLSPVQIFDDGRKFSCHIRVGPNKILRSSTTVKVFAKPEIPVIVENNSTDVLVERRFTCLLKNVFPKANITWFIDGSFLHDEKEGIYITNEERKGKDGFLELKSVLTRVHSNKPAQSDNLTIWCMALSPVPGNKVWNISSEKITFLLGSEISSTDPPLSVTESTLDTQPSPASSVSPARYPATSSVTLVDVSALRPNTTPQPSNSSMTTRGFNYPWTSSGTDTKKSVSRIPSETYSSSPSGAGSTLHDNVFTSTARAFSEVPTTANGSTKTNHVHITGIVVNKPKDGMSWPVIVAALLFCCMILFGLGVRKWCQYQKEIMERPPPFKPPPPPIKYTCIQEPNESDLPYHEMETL

T2: CD226 (Homo sapiens (Human), UniProt Q15762 19-336)
T2 construct: also called CD226 tfxn
T2 sequence: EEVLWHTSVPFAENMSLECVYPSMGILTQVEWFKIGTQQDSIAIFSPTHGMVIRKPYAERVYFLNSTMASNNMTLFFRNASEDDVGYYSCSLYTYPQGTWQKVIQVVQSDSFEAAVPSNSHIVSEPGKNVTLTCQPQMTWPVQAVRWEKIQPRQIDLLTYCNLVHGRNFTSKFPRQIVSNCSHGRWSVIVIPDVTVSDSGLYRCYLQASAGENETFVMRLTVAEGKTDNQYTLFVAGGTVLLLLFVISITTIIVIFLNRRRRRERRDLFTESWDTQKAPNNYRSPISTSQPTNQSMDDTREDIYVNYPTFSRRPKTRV

T3: TIGIT (Homo sapiens (Human), UniProt Q495A1 23-244)
T3 construct: also called TIGIT tfxn
T3 sequence: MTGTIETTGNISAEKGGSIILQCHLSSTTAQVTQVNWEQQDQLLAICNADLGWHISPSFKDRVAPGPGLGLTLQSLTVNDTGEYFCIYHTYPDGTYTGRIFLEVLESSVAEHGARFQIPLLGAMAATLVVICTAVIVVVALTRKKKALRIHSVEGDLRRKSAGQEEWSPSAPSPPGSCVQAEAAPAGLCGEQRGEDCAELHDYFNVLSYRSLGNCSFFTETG

B1: variant CD80 IgV-Fc H18Y/A26E/E35D/M47L (Fc fusion, not shown: small tags and cut ends; a dimerising Fc or GST)
chain: VIHVTKEVKEVATLSCGYNVSVEELEQTRIYWQKDKKMVLTMMSGDLNIWPEYKNRTIFDITNNLSIVILALRPSDEGTYECVVLKYEKDAFKREHLAEVTLSVKAD
B2: variant CD80 IgV-Fc H18Y/V68M/A71G/D90G (Fc fusion, not shown: small tags and cut ends; a dimerising Fc or GST)
chain: B1 chain with E26A, D35E, L47M, V68M, A71G, D90G
B3: variant CD155 IgV-Fc A81V/L83P (Fc fusion, not shown: a dimerising Fc or GST)
chain: WPPPGTGDVVVQAPTQVPGFLGDSVTLPCYLQVPNMEVTHVSQLTWARHGESGSMAVFHQTQGPSYSESKRLEFVAARLGVEPRNASLRMFGLRVEDEGNYTCLFVTFPQGSRSVDIWLRVL
B4: variant CD155 IgV-Fc P18L/L79V/F91S (Fc fusion, not shown: a dimerising Fc or GST)
chain: B3 chain with P18L, L79V, V81A, P83L, F91S
B5: variant CD155 IgV-Fc P18T/F91S/R94H (Fc fusion, not shown: a dimerising Fc or GST)
chain: B3 chain with P18T, V81A, P83L, F91S, R94H
B6: PD-L1 A33D/S75P/D104G IgV-Fc (Fc fusion, not shown: a dimerising Fc or GST)
chain: FTVTVPKDLYVVEYGSNMTIECKFPVEKQLDLDALIVYWEMEDKNIIQFVHGEEDLKVQHSSYRQRARLLKDQLPLGNAALQITDVKLQDAGVYRCMISYGGAGYKRITVKVNA

What was measured:
human CTLA4 [1] = molecular target: T4, human CTLA4 (human, UniProt P16410 36-223); assay: flow cytometry, CHO cells expressing huCTLA4
T4 construct: also called huCTLA4

human PD-L1 [2] = molecular target: T5, human PD-L1 (human, UniProt Q9NZQ7 19-290); assay: flow cytometry, CHO cells expressing huPD-L1
T5 construct: also called huPD-L1; CD274
Target sequence in this assay (Q9NZQ7 19-290): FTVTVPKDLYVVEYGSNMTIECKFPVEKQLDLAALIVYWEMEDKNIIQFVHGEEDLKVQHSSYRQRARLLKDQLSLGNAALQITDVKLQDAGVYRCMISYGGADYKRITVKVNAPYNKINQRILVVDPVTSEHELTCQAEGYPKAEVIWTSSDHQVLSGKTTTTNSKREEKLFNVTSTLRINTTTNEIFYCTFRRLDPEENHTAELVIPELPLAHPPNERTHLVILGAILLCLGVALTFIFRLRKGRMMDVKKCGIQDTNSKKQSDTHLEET

human PD-L1 [3] = molecular target: T5, human PD-L1; assay: flow cytometry; PD-L1 MFI over CD28 MFI at 33.3 nM
human CD28 [4] = molecular target: T6, human CD28 (human, UniProt P10747 19-220); assay: flow cytometry, Jurkat/IL2 reporter cells (endogenous CD28)
human CTLA4 [5] = molecular target: T4, human CTLA4; assay: flow cytometry, CHO cells expressing huCTLA4; MFI against WT CD80 IgV-Fc
human PD-L1 [6] = molecular target: T5, human PD-L1; assay: flow cytometry, CHO cells expressing huPD-L1; MFI against WT CD80 IgV-Fc
human CD28 [7] = molecular target: T6, human CD28; assay: flow cytometry, Jurkat/IL2 reporter cells (endogenous CD28); MFI against WT CD80 IgV-Fc
CD96 [8] = molecular target: T1, CD96; assay: flow cytometry on CD96-expressing cells
CD226 [9] = molecular target: T2, CD226; assay: flow cytometry on CD226-transfected Expi293 cells
TIGIT [10] = molecular target: T3, TIGIT; assay: flow cytometry on TIGIT-transfected Expi293 cells
CD96 [11] = molecular target: T1, CD96; assay: flow cytometry on CD96-expressing cells; ratio to unmodified CD155 Fc fusion
CD226 [12] = molecular target: T2, CD226; assay: flow cytometry on CD226-transfected Expi293 cells; ratio to unmodified CD155 Fc fusion
TIGIT [13] = molecular target: T3, TIGIT; assay: flow cytometry on TIGIT-transfected Expi293 cells; ratio to unmodified CD155 Fc fusion
PD-1 = molecular target: T7, PD-1 (Homo sapiens (Human), UniProt Q15116 21-288); assay: flow cytometry on Jurkat/PD-1 cells, 50 nM
T7 construct: The construct in the cells is not described; also called PDCD1
T7 sequence (Q15116 21-288): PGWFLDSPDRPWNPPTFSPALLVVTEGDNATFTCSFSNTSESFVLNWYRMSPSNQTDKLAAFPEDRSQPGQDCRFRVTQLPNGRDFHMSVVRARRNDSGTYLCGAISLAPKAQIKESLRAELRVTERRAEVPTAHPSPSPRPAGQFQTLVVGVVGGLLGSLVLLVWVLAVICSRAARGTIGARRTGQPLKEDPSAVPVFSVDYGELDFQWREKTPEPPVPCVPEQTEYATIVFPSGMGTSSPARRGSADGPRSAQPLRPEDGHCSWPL

T4 sequence (P16410 36-223): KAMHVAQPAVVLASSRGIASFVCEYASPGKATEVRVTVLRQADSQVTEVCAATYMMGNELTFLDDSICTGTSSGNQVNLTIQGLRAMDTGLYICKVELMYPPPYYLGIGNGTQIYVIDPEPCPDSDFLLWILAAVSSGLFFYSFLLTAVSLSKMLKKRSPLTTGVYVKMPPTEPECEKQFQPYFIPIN

Binder	MFI at 33.3 nM (human CTLA4 [1])	MFI at 33.3 nM (human PD-L1 [2])	Ratio of PDL1:CD28 (human PD-L1 [3])	MFI at 33.3 nM (human CD28 [4])	Fold change to WT CD80 (human CTLA4 [5])	Fold change to WT CD80 (human PD-L1 [6])	Fold change to WT CD80 (human CD28 [7])	MFI (CD96 [8])	MFI (CD226 [9])	MFI (TIGIT [10])	MFI parental ratio (CD96 [11])	MFI parental ratio (CD226 [12])	MFI parental ratio (TIGIT [13])	Fold increase over wildtype PD-L1 IgV-Fc (PD-1)	MFI at 50 nM (PD-1)
B1	24000 MFI	9950 MFI	30.7 ratio	324 MFI	17.7 fold	228 fold	7.4 fold	–	–	–	–	–	–	–	–
B2	22300 MFI	30700 MFI	9 ratio	3410 MFI	16.4 fold	703 fold	77.8 fold	–	–	–	–	–	–	–	–
B3	–	–	–	–	–	–	–	2620 MFI	4170 MFI	2910 MFI	0.8 fold	1.1 fold	1.1 fold	–	–
B4	–	–	–	–	–	–	–	3280 MFI	5140 MFI	4070 MFI	1.1 fold	1.4 fold	1.5 fold	–	–
B5	–	–	–	–	–	–	–	2510 MFI	3590 MFI	2940 MFI	0.8 fold	1 fold	1.1 fold	–	–
B6	–	–	–	–	–	–	–	–	–	–	–	–	–	0 fold	251
